Measurements as given in IntAct's records for PubMed 39009827.

B1: BCL11 transcription factor A (Homo sapiens), Q9H165 (parent)
chain: MSRRKQGKPQHLSKREFSPEPLEAILTDDEPDHGPLGAPEGDHDLLTCGQCQMNFPLGDILIFIEHKRKQCNGSLCLEKAVDKPPSPSPIEMKKASNPVEVGIQVTPEDDDCLSTSSRGICPKQEHIADKLLHWRGLSSPRSAHGALIPTPGMSAEYAPQGICKDEPSSYTCTTCKQPFTSAWFLLQHAQNTHGLRIYLESEHGSPLTPRVGIPSGLGAECPSQPPLHGIHIADNNPFNLLRIPGSVSREASGLAEGRFPPTPPLFSPPPRHHLDPHRIERLGAEEMALATHHPSAFDRVLRLNPMAMEPPAMDFSRRLRELAGNTSSPPLSPGRPSPMQRLLQPFQPGSKPPFLATPPLPPLQSAPPPSQPPVKSKSCEFCGKTFKFQSNLVVHRRSHTGEKPYKCNLCDHACTQASKLKRHMKTHMHKSSPMTVKSDDGLSTASSPEPGTSDLVGSASSALKSVVAKFKSENDPNLIPENGDEEEEEDDEEEEEEEEEEEEELTESERVDYGFGLSLEAARHHENSSRGAVVGVGDESRALPDVMQGMVLSSMQHFSEAFHQVLGEKHKRGHLAEAEGHRDTCDEDSVAGESDRIDDGTVNGRGCSPGESASGGLSKKLLLGSPSSLSPFSKRIKLEKEFDLPPAAMPNTENVYSQWLAGYAASRQLKDPFLSFGDSRQSPFASSSEHSSENGSLRFSTPPGELDGGISGRSGTGSGGSTPHISGPGPGRPSSKEGRRSDTCEYCGKVFKNCSNLTVHRRSHTGERPYKCELCNYACAQSSKLTRHMKTHGQVGKDVYKCEICKMPFSVYSTLEKHMKKWHSDRVLNNDIKTE
B2: ATP-binding cassette sub-family C member 6 (Homo sapiens), O95255 (parent)
chain: MAAPAEPCAGQGVWNQTEPEPAATSLLSLCFLRTAGVWVPPMYLWVLGPIYLLFIHHHGRGYLRMSPLFKAKMVLGFALIVLCTSSVAVALWKIQQGTPEAPEFLIHPTVWLTTMSFAVFLIHTERKKGVQSSGVLFGYWLLCFVLPATNAAQQASGAGFQSDPVRHLSTYLCLSLVVAQFVLSCLADQPPFFPEDPQQSNPCPETGAAFPSKATFWWVSGLVWRGYRRPLRPKDLWSLGRENSSEELVSRLEKEWMRNRSAARRHNKAIAFKRKGGSGMKAPETEPFLRQEGSQWRPLLKAIWQVFHSTFLLGTLSLIISDVFRFTVPKLLSLFLEFIGDPKPPAWKGYLLAVLMFLSACLQTLFEQQNMYRLKVLQMRLRSAITGLVYRKVLALSSGSRKASAVGDVVNLVSVDVQRLTESVLYLNGLWLPLVWIVVCFVYLWQLLGPSALTAIAVFLSLLPLNFFISKKRNHHQEEQMRQKDSRARLTSSILRNSKTIKFHGWEGAFLDRVLGIRGQELGALRTSGLLFSVSLVSFQVSTFLVALVVFAVHTLVAENAMNAEKAFVTLTVLNILNKAQAFLPFSIHSLVQARVSFDRLVTFLCLEEVDPGVVDSSSSGSAAGKDCITIHSATFAWSQESPPCLHRINLTVPQGCLLAVVGPVGAGKSSLLSALLGELSKVEGFVSIEGAVAYVPQEAWVQNTSVVENVCFGQELDPPWLERVLEACALQPDVDSFPEGIHTSIGEQGMNLSGGQKQRLSLARAVYRKAAVYLLDDPLAALDAHVGQHVFNQVIGPGGLLQGTTRILVTHALHILPQADWIIVLANGAIAEMGSYQELLQRKGALMCLLDQARQPGDRGEGETEPGTSTKDPRGTSAGRRPELRRERSIKSVPEKDRTTSEAQTEVPLDDPDRAGWPAGKDSIQYGRVKATVHLAYLRAVGTPLCLYALFLFLCQQVASFCRGYWLSLWADDPAVGGQQTQAALRGGIFGLLGCLQAIGLFASMAAVLLGGARASRLLFQRLLWDVVRSPISFFERTPIGHLLNRFSKETDTVDVDIPDKLRSLLMYAFGLLEVSLVVAVATPLATVAILPLFLLYAGFQSLYVVSSCQLRRLESASYSSVCSHMAETFQGSTVVRAFRTQAPFVAQNNARVDESQRISFPRLVADRWLAANVELLGNGLVFAAATCAVLSKAHLSAGLVGFSVSAALQVTQTLQWVVRNWTDLENSIVSVERMQDYAWTPKEAPWRLPTCAAQPPWPQGGQIEFRDFGLRYRPELPLAVQGVSFKIHAGEKVGIVGRTGAGKSSLASGLLRLQEAAEGGIWIDGVPIAHVGLHTLRSRISIIPQDPILFPGSLRMNLDLLQEHSDEAIWAALETVQLKALVASLPGQLQYKCADRGEDLSVGQKQLLCLARALLRKTQILILDEATAAVDPGTELQMQAMLGSWFAQCTVLLIAHRLRSVMDCARVLVMDKGQVAESGSPAQLLAQKGLFYRLAQESGLV
B3: Microphthalmia-associated transcription factor (Homo sapiens), O75030 (parent)
chain: MQSESGIVPDFEVGEEFHEEPKTYYELKSQPLKSSSSAEHPGASKPPISSSSMTSRILLRQQLMREQMQEQERREQQQKLQAAQFMQQRVPVSQTPAINVSVPTTLPSATQVPMEVLKVQTHLENPTKYHIQQAQRQQVKQYLSTTLANKHANQVLSLPCPNQPGDHVMPPVPGSSAPNSPMAMLTLNSNCEKEGFYKFEEQNRAESECPGMNTHSRASCMQMDDVIDDIISLESSYNEEILGLMDPALQMANTLPVSGNLIDLYGNQGLPPPGLTISNSCPANLPNIKRELTACIFPTESEARALAKERQKKDNHNLIERRRRFNINDRIKELGTLIPKSNDPDMRWNKGTILKASVDYIRKLQREQQRAKELENRQKKLEHANRHLLLRIQELEMQARAHGLSLIPSTGLCSPDLVNRIIKQEPVLENCSQDLLQHHADLTCTTTLDLTDGTITFNNNLGTGTEANQAYSVPTKMGSKLEDILMDDTLSPVGVTDPLLSSVSPGASKTSSRRSSMSMEETEHTC
B4: Radial spoke head protein 4 homolog A (Homo sapiens), Q5TD94 (parent)
chain: MEDSTSPKQEKENQEELGETRRPWEGKTAASPQYSEPESSEPLEAKQGPETGRQSRSSRPWSPQSRAKTPLGGPAGPETSSPAPVSPREPSSSPSPLAPARQDLAAPPQSDRTTSVIPEAGTPYPDPLEQSSDKRESTPHHTSQSEGNTFQQSQQPKPHLCGRRDVSYNNAKQKELRFDVFQEEDSNSDYDLQQPAPGGSEVAPSMLEITIQNAKAYLLKTSSNSGFNLYDHLSNMLTKILNERPENAVDIFENISQDVKMAHFSKKFDALQNENELLPTYEIAEKQKALFLQGHLEGVDQELEDEIAENALPNVMESAFYFEQAGVGLGTDETYRIFLALKQLTDTHPIQRCRFWGKILGLEMNYIVAEVEFREGEDEEEVEEEDVAEERDNGESEAHEDEEDELPKSFYKAPQAIPKEESRTGANKYVYFVCNEPGRPWVKLPPVIPAQIVIARKIKKFFTGRLDAPIISYPPFPGNESNYLRAQIARISAGTHVSPLGFYQFGEEEGEEEEEAEGGRNSFEENPDFEGIQVIDLVESLSNWVHHVQHILSQGRCNWFNSIQKNEEEEEEEDEEKDDSDYIEQEVGLPLLTPISEDLEIQNIPPWTTRLSSNLIPQYAIAVLQSNLWPGAYAFSNGKKFENFYIGWGHKYSPDNYTPPVPPPVYQEYPSGPEITEMDDPSVEEEQAFRAAQEAVLLAAENEESEEDEDEEDDYD
B5: BCL11 transcription factor A (Homo sapiens), Q9H165 (parent)
chain: B1 chain
partner: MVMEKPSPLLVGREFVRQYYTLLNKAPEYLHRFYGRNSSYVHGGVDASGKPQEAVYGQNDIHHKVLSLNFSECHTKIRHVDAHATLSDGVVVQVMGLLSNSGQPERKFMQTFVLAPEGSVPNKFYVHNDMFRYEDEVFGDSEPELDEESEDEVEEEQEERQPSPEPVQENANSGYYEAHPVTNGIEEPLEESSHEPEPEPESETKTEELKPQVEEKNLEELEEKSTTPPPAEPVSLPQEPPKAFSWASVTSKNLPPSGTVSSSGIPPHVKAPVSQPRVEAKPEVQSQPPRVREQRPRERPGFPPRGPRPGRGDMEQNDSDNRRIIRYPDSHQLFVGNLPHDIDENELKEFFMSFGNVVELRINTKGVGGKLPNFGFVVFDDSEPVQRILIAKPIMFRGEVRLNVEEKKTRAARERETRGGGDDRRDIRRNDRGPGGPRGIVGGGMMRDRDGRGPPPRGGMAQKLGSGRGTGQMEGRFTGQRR
B6: BRCA1-A complex subunit Abraxas 1 (Homo sapiens), Q6UWZ7 (parent)
chain: MEGESTSAVLSGFVLGALAFQHLNTDSDTEGFLLGEVKGEAKNSITDSQMDDVEVVYTIDIQKYIPCYQLFSFYNSSGEVNEQALKKILSNVKKNVVGWYKFRRHSDQIMTFRERLLHKNLQEHFSNQDLVFLLLTPSIITESCSTHRLEHSLYKPQKGLFHRVPLVVANLGMSEQLGYKTVSGSCMSTGFSRAVQTHSSKFFEEDGSLKEVHKINEMYASLQEELKSICKKVEDSEQAVDKLVKDVNRLKREIEKRRGAQIQAAREKNIQKDPQENIFLCQALRTFFPNSEFLHSCVMSLKNRHVSKSSCNYNHHLDVVDNLTLMVEHTDIPEASPASTPQIIKHKALDLDDRWQFKRSRLLDTQDKRSKADTGSSNQDKASKMSSPETDEEIEKMKGFGEYSRSPTF

Variants of: B1
Details: with clh1_human CLTC
Target sequence in this assay (Q00610 whole entry): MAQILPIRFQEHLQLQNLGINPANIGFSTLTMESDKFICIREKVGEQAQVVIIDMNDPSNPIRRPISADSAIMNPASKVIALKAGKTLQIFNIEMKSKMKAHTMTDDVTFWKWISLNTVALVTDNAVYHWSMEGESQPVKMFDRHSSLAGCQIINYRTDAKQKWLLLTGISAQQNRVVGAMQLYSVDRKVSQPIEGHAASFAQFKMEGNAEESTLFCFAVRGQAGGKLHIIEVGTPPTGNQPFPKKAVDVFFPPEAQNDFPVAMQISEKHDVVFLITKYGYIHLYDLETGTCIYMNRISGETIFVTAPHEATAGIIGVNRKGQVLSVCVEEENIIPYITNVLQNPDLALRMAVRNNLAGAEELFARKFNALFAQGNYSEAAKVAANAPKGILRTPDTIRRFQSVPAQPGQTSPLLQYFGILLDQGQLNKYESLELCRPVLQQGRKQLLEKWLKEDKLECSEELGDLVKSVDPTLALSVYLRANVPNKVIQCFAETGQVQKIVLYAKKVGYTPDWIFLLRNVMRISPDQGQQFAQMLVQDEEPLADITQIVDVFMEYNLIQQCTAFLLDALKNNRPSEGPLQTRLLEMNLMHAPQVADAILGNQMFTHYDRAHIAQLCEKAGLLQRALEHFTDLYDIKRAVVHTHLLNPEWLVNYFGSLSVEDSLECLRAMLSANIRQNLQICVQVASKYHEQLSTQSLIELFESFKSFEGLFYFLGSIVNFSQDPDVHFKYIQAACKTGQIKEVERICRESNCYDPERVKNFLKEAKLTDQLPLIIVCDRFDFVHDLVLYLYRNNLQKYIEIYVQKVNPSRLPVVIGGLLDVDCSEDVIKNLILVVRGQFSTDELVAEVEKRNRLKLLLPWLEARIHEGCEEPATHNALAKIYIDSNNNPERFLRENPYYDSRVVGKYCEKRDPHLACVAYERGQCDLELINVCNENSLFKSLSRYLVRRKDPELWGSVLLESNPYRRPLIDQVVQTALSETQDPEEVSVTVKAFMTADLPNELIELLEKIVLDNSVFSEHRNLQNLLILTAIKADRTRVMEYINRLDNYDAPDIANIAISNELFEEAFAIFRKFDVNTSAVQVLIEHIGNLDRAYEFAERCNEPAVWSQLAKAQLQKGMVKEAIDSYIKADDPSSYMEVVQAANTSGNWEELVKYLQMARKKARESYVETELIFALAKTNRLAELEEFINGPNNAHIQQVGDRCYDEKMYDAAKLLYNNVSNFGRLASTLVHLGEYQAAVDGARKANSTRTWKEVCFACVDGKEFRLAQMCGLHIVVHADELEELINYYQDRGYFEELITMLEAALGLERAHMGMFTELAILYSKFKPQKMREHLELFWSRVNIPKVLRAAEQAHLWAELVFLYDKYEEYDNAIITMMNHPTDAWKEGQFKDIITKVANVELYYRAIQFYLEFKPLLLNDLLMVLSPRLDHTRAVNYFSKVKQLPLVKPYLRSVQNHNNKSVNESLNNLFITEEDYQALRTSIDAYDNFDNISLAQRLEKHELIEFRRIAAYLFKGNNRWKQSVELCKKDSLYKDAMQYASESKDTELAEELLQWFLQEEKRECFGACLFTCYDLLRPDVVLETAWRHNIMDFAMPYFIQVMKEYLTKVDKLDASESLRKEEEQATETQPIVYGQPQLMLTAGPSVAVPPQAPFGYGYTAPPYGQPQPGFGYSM

| Variant | effect of a mutation on the interaction |
| --- | --- |
| C48F | increasing interaction strength |

Variants of: B2
Details: with mlp3b_human MAP1LC3B

| Variant | effect of a mutation on the interaction |
| --- | --- |
| L1226I | decreasing interaction strength |

Variants of: B2
Details: with mlp3a_human MAP1LC3A

| Variant | effect of a mutation on the interaction |
| --- | --- |
| L1226I | decreasing interaction strength |

Variants of: B3
Details: with clh1_human CLTC
Target sequence in this assay (Q00610 whole entry): as above

| Variant | effect of a mutation on the interaction |
| --- | --- |
| Y265C | with no effect |

Variants of: B4
Details: with nedd4_human NEDD4, P46934
Sequence of nedd4_human NEDD4, P46934 (P46934 whole entry): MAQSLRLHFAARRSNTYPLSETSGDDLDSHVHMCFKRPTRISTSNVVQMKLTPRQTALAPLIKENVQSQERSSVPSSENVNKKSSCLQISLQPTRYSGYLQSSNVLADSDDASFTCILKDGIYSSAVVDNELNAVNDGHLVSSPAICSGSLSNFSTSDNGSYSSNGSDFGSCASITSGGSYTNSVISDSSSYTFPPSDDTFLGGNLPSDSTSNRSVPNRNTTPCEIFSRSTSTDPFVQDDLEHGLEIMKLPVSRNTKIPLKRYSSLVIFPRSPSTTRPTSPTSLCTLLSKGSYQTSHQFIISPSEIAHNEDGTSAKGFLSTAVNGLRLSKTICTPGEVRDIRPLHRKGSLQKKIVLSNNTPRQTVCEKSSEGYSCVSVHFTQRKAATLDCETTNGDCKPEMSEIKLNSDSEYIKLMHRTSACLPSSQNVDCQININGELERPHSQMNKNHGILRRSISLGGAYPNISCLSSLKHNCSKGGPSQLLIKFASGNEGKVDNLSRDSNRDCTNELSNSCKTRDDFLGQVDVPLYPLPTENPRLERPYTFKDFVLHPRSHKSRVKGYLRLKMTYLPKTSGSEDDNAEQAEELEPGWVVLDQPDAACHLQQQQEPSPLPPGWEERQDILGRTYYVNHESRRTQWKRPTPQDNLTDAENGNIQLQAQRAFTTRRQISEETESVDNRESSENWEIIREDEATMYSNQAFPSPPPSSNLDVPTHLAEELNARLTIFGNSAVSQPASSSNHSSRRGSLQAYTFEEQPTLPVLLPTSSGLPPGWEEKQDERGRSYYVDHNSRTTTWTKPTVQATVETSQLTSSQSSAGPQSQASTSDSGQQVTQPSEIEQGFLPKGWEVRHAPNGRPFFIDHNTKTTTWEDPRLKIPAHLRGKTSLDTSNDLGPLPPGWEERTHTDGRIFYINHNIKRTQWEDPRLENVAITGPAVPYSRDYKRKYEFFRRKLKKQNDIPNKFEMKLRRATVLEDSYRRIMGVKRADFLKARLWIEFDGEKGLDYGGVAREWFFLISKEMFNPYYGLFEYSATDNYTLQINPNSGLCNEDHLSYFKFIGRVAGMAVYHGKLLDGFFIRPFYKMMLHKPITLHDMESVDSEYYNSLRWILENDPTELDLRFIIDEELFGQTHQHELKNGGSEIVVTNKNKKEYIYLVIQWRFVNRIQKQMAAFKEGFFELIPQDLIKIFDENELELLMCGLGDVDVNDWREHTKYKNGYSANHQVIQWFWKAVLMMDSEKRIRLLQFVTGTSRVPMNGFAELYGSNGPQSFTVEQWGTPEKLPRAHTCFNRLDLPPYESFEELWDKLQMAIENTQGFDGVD

| Variant | effect of a mutation on the interaction |
| --- | --- |
| P664S | decreasing interaction strength |

Variants of: B5
Details: with G3BP2, Q9UN86

| Variant | effect of a mutation on the interaction |
| --- | --- |
| C48F | causing an interaction |

Variants of: B6
Details: with ima3_human KPNA4, O00629
Sequence of ima3_human KPNA4, O00629 (O00629 whole entry): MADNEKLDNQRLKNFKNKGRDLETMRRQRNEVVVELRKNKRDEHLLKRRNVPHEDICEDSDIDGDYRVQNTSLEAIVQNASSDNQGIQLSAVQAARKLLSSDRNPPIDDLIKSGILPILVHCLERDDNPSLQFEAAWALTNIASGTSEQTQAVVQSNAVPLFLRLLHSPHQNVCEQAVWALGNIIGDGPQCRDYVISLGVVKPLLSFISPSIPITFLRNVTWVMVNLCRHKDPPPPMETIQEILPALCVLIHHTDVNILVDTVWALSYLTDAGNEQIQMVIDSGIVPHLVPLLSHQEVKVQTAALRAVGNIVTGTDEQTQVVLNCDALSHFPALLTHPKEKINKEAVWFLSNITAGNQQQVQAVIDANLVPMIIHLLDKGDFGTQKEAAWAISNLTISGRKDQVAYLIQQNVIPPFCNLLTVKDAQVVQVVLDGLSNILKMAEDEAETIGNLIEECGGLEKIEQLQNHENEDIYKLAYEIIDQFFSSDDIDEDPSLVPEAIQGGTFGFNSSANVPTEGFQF

| Variant | effect of a mutation on the interaction |
| --- | --- |
| R361Q | decreasing interaction strength |
